According to patent US20110286981A1 (ZEALAND PHARMA A S, published 2011):

Columns and labels:
[1] = target: human glucagon-like peptide 1 receptor (human, UniProt P43220 24-463); assay: cell-based or functional assay
human glucagon receptor = human glucagon receptor (human, UniProt P47871 26-477); assay: cell-based or functional assay

human glucagon-like peptide 1 receptor, sequence (P43220 24-463): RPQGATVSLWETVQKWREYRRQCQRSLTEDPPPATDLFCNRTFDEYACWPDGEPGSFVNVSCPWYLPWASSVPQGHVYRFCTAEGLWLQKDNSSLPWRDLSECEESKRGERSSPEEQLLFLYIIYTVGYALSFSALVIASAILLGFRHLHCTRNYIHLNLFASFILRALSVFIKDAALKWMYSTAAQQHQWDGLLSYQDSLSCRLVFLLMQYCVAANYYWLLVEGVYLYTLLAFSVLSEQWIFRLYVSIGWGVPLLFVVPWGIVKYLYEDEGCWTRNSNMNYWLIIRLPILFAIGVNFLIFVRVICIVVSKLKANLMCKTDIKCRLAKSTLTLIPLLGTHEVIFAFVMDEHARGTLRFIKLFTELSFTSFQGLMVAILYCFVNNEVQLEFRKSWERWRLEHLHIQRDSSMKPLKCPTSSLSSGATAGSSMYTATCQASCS

| GLP-1R EC50 (cAMP formation in HEK293 cells expressing human GLP-1-R) [1] | GLUR EC50 (cAMP formation in HEK293 cells expressing human Glucagon-R) (human glucagon receptor) | Binder |
| --- | --- | --- |
| 0.07 nmol | 0.1 nmol | H-HSQGTFTSDYSKYLDDRRARDFIDWLLSA-NH2 [L006-0093] |
| 0.2 nmol | 0.24 nmol | H-HSQGTFTSDYSKYLDERRAKDFIDWLLSA-NH2 [L006-0129] |
| 0.09 nmol |  | H-HSQGTFTSDYSKYLDERRAQDFIEWLLSA-NH2 [L006-0082] |
| 0.07 nmol | 0.13 nmol | H-HSQGTFTSDYSKYLDERRAKDFIQWLLSA-NH2 [L006-0084] |
| 0.53 nmol | 0.81 nmol | H-HSQGTFTSDYSKYLDERAAKDFIEWLLSA-NH2 [L006-0108] |
| 0.16 nmol | 0.25 nmol | H-HSQGTFTSDYSKYLDKRRAEDFIKWLLSA-NH2 [L006-0094] |
| 0.22 nmol | 0.33 nmol | H-HSQGTFTSDYSKYLDERRAKDFIEWLLAA-NH2 [L006-0136] |
| 0.15 nmol | 0.22 nmol | H-HSQGTFTSDYSKYLDSRRAQDFIEWLLSA-NH2 [L006-0090] |
| 0.29 nmol | 0.38 nmol | H-HSQGTFTSDYSKYLDERRAKDFIEWLLRA-NH2 [L006-0138] |
| 0.14 nmol | 0.23 nmol | H-HSQGTFTSDYSKYLDSRRAKDFIEWLLSA-NH2 [L006-0081] |
| 0.16 nmol | 0.22 nmol | H-HSQGTFTSDYSKYLDERRAKDFIRWLLSA-NH2 [L006-0128] |
